Article PMC9016349, “HOIL‐1 ubiquitin ligase activity targets unbranched glucosaccharides and is required to prevent polyglucosan accumulation” (The EMBO Journal, 2022)

Target: T1, His‐Halo‐tagged Met1‐linked ubiquitin tetramer (human, UniProt P0CG48 1-76; P0CG48 1-76; P0CG48 1-76; P0CG48 1-76)
T1 construct: ubiquitin (76-residue mature product of the polyubiquitin precursor), repeat 1 of 4, joined head to tail through Met1; ubiquitin (76-residue mature product), repeat 2 of 4; ubiquitin (76-residue mature product), repeat 3 of 4; ubiquitin (76-residue mature product), repeat 4 of 4; Tag end read from the printed name Halo‐M1‐Ub4; Covalently coupled to HaloLink resin through the Halo tag; also called …
T1 sequence (P0CG48 1-304, one chain of several): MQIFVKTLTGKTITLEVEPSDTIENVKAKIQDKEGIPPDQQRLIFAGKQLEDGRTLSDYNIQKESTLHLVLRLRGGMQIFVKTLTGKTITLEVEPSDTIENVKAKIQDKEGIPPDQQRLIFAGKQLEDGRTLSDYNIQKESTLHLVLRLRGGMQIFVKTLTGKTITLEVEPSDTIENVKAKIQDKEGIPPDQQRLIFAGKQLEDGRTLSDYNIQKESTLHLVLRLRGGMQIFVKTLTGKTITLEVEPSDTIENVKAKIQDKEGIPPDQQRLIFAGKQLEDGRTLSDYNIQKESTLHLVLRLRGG
Experiment: pull-down; Halo‐tagged M1‐linked tetraubiquitin covalently coupled to HaloLink resin; 10 μl beads with 2 μg bacterially expressed HOIL‐1 protein in 0.5 ml PBS pH 7.4, 0.001% NP‐40, 1 mM TCEP, 0.01 mg/ml BSA, 3.5 h at 4°C; bound protein detected by Coomassie staining
Conditions: both partners purified

binding result: binds
B1: HOIL‐1 (haem‐oxidised IRP2 ubiquitin ligase‐1), full‐length untagged human, wild type (enzyme, UniProt Q9BYM8 1-510, looked up)
chain: MDEKTKKAEEMALSLTRAVAGGDEQVAMKCAIWLAEQRVPLSVQLKPEVSPTQDIRLWVSVEDAQMHTVTIWLTVRPDMTVASLKDMVFLDYGFPPVLQQWVIGQRLARDQETLHSHGVRQNGDSAYLYLLSARNTSLNPQELQRERQLRMLEDLGFKDLTLQPRGPLEPGPPKPGVPQEPGRGQPDAVPEPPPVGWQCPGCTFINKPTRPGCEMCCRARPEAYQVPASYQPDEEERARLAGEEEALRQYQQRKQQQQEGNYLQHVQLDQRSLVLNTEPAECPVCYSVLAPGEAVVLRECLHTFCRECLQGTIRNSQEAEVSCPFIDNTYSCSGKLLEREIKALLTPEDYQRFLDLGISIAENRSAFSYHCKTPDCKGWCFFEDDVNEFTCPVCFHVNCLLCKAIHEQMNCKEYQEDLALRAQNDVAARQTTEMLKVMLQQGEAMRCPQCQIVVQKKDGCDWIRCTVCHTEICWVTKGPRWGPGGPGDTSGGCRCRVNGIPCHPSCQNCH
notes: HOIL‐1 (RBCK1), human, full length (residues 1-510 by the printed construct limits); Tag end read from the printed name His6‐SUMO‐HOIL‐1; also called RBCK1; wild‐type HOIL‐1; source: E. coli BL21 (DE3), purified (tag removed with Ulp1; size exclusion chromatography or dialysis); not shown: His6, N-terminal, cleaved; SUMO, N-terminal, cleaved
